From the supplement of paper PMC10567573
± gives the standard deviation.

Test: protein stability index of a GFP-peptide fusion (GPS, HEK-293T) (PSI 1-6); higher = more stable
Conditions: c terminus: a fixed tail appended
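Also: 24-mer peptide tiles fused after GFP, lentivirally expressed, FACS-sorted into six equal bins by GFP/DsRed ratio, decoded by Illumina sequencing, PSI is the read-weighted mean bin number.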

Row | Sequence | protein stability index (treatment: DMSO) | protein stability index (treatment: MLN4924 1 uM, 8 h)
1 | DEAQGACLQQKQVVAEAQTRVSQL [LRRC45] | 5.23 ± 0.12 | 5.09 ± 0.31
2 | SLENTLTESEAHYSSQLSQVQSLI [KRT34] | 3.32 ± 0.093 | 3.42 ± 0.31
3 | NHLPDPEIFRQRFRQFGYQDSPGP [ZNF24] | 3.54 ± 0.29 | 3.48 ± 0.3
4 | DPNKMAFGCEECGKKYNTMLGYKR [PLAGL1] | 3.07 ± 0.49 | 3.46 ± 0.64
5 | GPGSKRDAHFCAVCSDYASGYHYG [ESR2] | 2.42 ± 0.2 | 2.65 ± 0.32
6 | DSSEEKHLEEPGETQNAFLNERKQ [CHGB] | 5.5 ± 0.41 | 5.41 ± 0.36
7 | VFRIFKLSRHSKGLQILGHTLRAS [KCNA4] | 2.39 ± 1 | 2.6 ± 0.68
8 | LKFLEENKIKVMHKQLLLFHNAVS [ARFIP2] | 2.41 ± 0.44 | 2.17 ± 0.26
9 | GVGGAERLVLDAALALQARGCSVK [ALG2] | 3.22 ± 0.24 | 3.28 ± 0.48
10 | PQIPVDRGSETTYESSADIAGDEG [TAF7L] | 5.46 ± 0.22 | 5.48 ± 0.32
11 | TFESPADAKDAARDMNGKSLDGKA [RBMX] | 5.39 ± 0.3 | 5.55 ± 0.12
12 | LTLAQGAGEEDPSGMVTIITGLPL [SMG5] | 2.98 ± 0.43 | 2.76 ± 0.44
13 | ELNGHTQKITAIITFPSLESCEEK [WDR41] | 3.1 ± 0.29 | 3.42 ± 0.42
14 | IRDFEARKCPVHGKTMELFCQTDQ [TRIM29] | 3.54 ± 0.28 | 3.76 ± 0.28
15 | LPPYPPYFEGAPFPHPLWLRDTYK [PWWP2B] | 2.54 ± 0.39 | 2.5 ± 0.12
16 | LYRDDVLIKPSRVVAILAAACLLQ [GMCL1] | 3.05 ± 0.84 | 2.45 ± 0.18

Row | Sequence | protein stability index (treatment: DMSO) | protein stability index (treatment: MLN4924 1 uM, 8 h)
17 | EFISSTKRPYAKELETVDFKDKLE [SERPINB5] | 3.98 ± 0.24 | 4.32 ± 0.13
18 | SNGFPERDPPRPGPSRPAEKPPRP [GCH1] | 5 ± 0.1 | 4.99 ± 0.082
19 | FKCRNKTSGQVVAVKKFVESEDDP [CDKL4] | 4.7 ± 0.089 | 4.94 ± 0.28
20 | KAETKTKKAAESLRRSVEKYNSAR [FCHO1] | 4.64 ± 0.22 | 4.72 ± 0.075
21 | TQKLSKIETLRLAKNYIWALSEIL [NEUROD6] | 2.61 ± 0.49 | 2.67 ± 0.47
22 | SHLCSCLAMLALLSPLSLAQYDSW [LOXL2] | 3.02 ± 0.29 | 2.96 ± 1.2
23 | PLEAMYMQCPVIAVNSGGPLESID [ALG2] | 3.61 ± 0.33 | 3.86 ± 0.22
24 | GKLVLSSLPKRLCLVCGDVASGYH [ESRRA] | 2.38 ± 0.45 | 1.97 ± 0.33
25 | NIVNLLTTCSTPLLNSPPSFVCWS [AUP1] | 3.2 ± 0.56 | 2.78 ± 0.47
26 | FPALLSTGEFLKLPFERLAFVLSS [KLHL13] | 2.95 ± 0.74 | 3.08 ± 0.73
27 | PVGSCCSSPAGLSREYKLVMLGAG [RIT1] | 2.54 ± 0.44 | 2.24 ± 0.35
28 | VKRRRTASLSNQECQLYPRRSQQQ [SNURF] | 4.43 ± 0.18 | 4.45 ± 0.19
29 | SYLSLTSEDNTSFDRKKKSISLMY [SLA] | 2.94 ± 0.18 | 2.95 ± 0.25
30 | NDFSYLHTNCFELSIYVGCDKYPH [CPXM2] | 2.5 ± 0.18 | 2.25 ± 0.37
31 | METHKELKPLLSPSSETTVTVELP [LYSMD4] | 4.77 ± 0.16 | 5.06 ± 0.083
32 | KPKIEDVGSDEEDDSGKDKKKKTK [HSP90AB1] | 5.54 ± 0.24 | 5.56 ± 0.12
